Experimental data published in patent US20260274981A1 (VIB VZW, published 2026).

Legend:
[1] = biological target: T1, recombinant human TfR (2474-TR, R&D Systems), biotinylated (human, UniProt P02786 89-760, biotinylated with EZ-Link NHS-PEG4-Biotinylation Kit); assay: SPR (Biacore T200), biotinylated human TfR captured on SA chip, VHH as analyte, single cycle kinetics
T1 construct: Bought protein; also called immobilized recombinant human TfR; biotinylated human TfR
Description: Phage libraries generated after 4 biweekly immunizations of two different camelids, underwent two rounds of pannings on CHO cell lines overexpressing either cynomolgus TfR in the first round or human TfR in the second round. Output libraries were screened with flow cytometry to find binders to human TfR overexpressing cells (FIG. 1A). […] Binding kinetics to recombinant human and cynomolgus TfR were further characterized with Surface Plasmon Resonance (SPR).
Surface Plasmon Resonance (SPR) was used to measure the interaction between VHHs and human or cynomolgus TfR receptor. Human TfR (2474-TR, R&D Systems) and cynomolgus TfR (90253-C07H, Sino Biological) were biotinylated with the EZ-Link NHS-PEG4-Biotinylation Kit (ThermoFischer Scientific) according to the manufacturer instructions. The binding experiments were performed at 25° C. on a Biacore T200 instrument (Cytiva, Uppsala, Sweden) in HBS-EP+ buffer (10 mM HEPES, 150 mM NaCl, 3 mM EDTA and 0.05% v/v Surfactant P20). Biotinylated human TfR and cynomolgus TfR were captured on a SA sensor chip (Cytiva) at a density of around 250 RU. Increasing concentrations of VHHs were sequentially injected in one single cycle at a flow rate of 30 μl/min. The dissociation was monitored for 20 min. […] A reference flow was used as a control for non-specific binding and refractive index changes. Several buffer blanks were used for double referencing. […]

[2] = biological target: T2, mouse TfR overexpressed on CHO cells (mouse, UniProt Q62351 1-763); assay: flow cytometry on CHO cells overexpressing mouse TfR (CHO-mTfR), VHH detected with anti-FLAG-iFluor647; median Flag-i647 intensity in total GFP cells
T2 construct: whole, on cells
Description: (§1) Output libraries were screened with flow cytometry to find binders to human TfR overexpressing cells (FIG. 1A). […] Binding kinetics to recombinant human and cynomolgus TfR were further characterized with Surface Plasmon Resonance (SPR).
(§2) Periplasmic extracts diluted 1:10 in PBS 2% FBS, or a dilution range of different VHH or bispecific antibody concentrations prepared in PBS 2% FBS, were incubated with 0.1 million CHO cells overexpressing either the human, cynomolgus or mouse TfR for 30 min at 4° C. As control for background binding, periplasmic extracts, VHHs or bispecific antibodies were also incubated with 0.1 million CHO cells overexpressing GFP. Binding of VHHs was next resolved by a second step 30 min incubation at 4° C. with an anti-FLAG-iFluor647 antibody (A01811, Genscript) diluted 1:500 for screening and 1:250 for validation assays, or with anti-human IgG Fc-Alexa Fluor647 antibody (410714, BioLegend) diluted 1:200. […] Cells were fixed with 4% paraformaldehyde before being analyzed. Flp-In™-CHO™ cells used as unstained control and single stain controls were used to determine the cut-off point between background fluorescence and positive populations. […] The data was acquired with an Attune Nxt flow cytometer (Invitrogen) and analyzed by FCS Express 7 Research Edition.

[3] = biological target: T3, cynomolgus TfR overexpressed on CHO cells (cynomolgus monkey, UniProt Q5RDH6 1-760 (Pongo abelii entry)); assay: flow cytometry on CHO cells overexpressing cynomolgus TfR (CHO-cynoTfR), VHH detected with anti-FLAG-iFluor647; median Flag-i647 intensity in total GFP cells
T3 construct: construct is TfR followed by an HA tag and IRES-GFP; also called cynomolgus monkey TfR1; NHP TfR
T3 chain: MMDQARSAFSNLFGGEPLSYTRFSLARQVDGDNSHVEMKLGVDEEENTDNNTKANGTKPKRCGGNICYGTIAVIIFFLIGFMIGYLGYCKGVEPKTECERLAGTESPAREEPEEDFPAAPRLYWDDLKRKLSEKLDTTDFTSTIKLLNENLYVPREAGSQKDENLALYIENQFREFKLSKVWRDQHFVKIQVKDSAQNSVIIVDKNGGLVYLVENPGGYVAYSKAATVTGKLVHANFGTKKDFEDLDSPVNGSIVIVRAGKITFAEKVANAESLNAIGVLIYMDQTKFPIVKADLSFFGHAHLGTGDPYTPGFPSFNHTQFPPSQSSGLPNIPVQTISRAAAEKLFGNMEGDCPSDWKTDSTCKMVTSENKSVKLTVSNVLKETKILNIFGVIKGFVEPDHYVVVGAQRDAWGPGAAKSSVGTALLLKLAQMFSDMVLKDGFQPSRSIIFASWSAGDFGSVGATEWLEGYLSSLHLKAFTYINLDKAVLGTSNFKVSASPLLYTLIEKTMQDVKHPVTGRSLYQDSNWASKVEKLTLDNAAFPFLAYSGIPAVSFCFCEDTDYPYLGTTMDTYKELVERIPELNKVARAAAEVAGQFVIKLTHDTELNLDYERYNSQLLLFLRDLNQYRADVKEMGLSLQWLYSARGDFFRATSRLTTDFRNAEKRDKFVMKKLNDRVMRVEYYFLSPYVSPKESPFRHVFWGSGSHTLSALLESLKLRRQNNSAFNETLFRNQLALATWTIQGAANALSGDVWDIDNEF
Description: as §1, §2

T2 sequence (Q62351 whole entry): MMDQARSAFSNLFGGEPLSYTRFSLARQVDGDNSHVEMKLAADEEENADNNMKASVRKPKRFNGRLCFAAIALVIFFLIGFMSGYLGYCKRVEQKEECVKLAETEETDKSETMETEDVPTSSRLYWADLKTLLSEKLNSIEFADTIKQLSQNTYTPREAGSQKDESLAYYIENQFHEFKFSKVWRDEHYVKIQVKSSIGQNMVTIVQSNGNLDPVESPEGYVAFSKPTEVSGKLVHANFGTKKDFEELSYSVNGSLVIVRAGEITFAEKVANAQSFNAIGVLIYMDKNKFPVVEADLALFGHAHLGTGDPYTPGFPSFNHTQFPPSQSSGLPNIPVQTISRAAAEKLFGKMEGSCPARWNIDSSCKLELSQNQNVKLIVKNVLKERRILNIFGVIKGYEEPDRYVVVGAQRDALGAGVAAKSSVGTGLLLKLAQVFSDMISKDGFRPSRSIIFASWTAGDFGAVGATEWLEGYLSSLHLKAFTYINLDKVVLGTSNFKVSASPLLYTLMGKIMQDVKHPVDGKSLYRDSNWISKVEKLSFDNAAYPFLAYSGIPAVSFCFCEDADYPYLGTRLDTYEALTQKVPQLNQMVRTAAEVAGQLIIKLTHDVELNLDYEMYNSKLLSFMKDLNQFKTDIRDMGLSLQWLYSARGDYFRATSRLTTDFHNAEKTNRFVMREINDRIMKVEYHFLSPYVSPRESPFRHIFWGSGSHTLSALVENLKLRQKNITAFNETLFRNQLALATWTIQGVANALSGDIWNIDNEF

Binder | Kd [1] [nM] | binding result [2] | EC50 (read off the curve) [3] [nM]
BBB00515 (VHH, Lead VHH expressed in E. coli TG1 and purified by IMAC; detected with anti-FLAG antibody in flow cytometry; also called BBB00515 VHH; not shown: C-terminal 3xFlag/6xHis tag from expression vector pBDS119) VHH: QVQLQESGGGLVQAGGSLRLSCAASGSIFSINAMGWYRQAPGKQRELVAVITSGGSTIYADSVKGRFTISRDNAENTVYLQMNSLKPEDTAVYYCNAHVGLKVPTIQELSLGFGSWGQGTQVTVSS | 1180 | no binding (tested: Log10 Conc 3.5 (about 3000 nM)) | ~8
BBB00533 (VHH, Lead VHH expressed in E. coli TG1 and purified by IMAC; detected with anti-FLAG antibody in flow cytometry; also called BBB00533 VHH; not shown: C-terminal 3xFlag/6xHis tag from expression vector pBDS119) VHH: QVQLQESGGGSVQPGGSLRLSCTASGRTFNYAMGWFRQAPGKNREFVATIDWKDGSSYYLDSVRGRFTIERDDAKNTVYLQMNSLKPEDAAVYTCAVGDGDYCSTYTCAAEVEYDYWGQGTQVTVSS | 207 | no binding (tested: Log10 Conc 3.5 (about 3000 nM)) | ~40
